Laboratory results as given in IntAct's records for PubMed 22439934.

B1: Zinc finger protein GLI1 (Homo sapiens), P08151 (parent)
chain: MFNSMTPPPISSYGEPCCLRPLPSQGAPSVGTEGLSGPPFCHQANLMSGPHSYGPARETNSCTEGPLFSSPRSAVKLTKKRALSISPLSDASLDLQTVIRTSPSSLVAFINSRCTSPGGSYGHLSIGTMSPSLGFPAQMNHQKGPSPSFGVQPCGPHDSARGGMIPHPQSRGPFPTCQLKSELDMLVGKCREEPLEGDMSSPNSTGIQDPLLGMLDGREDLEREEKREPESVYETDCRWDGCSQEFDSQEQLVHHINSEHIHGERKEFVCHWGGCSRELRPFKAQYMLVVHMRRHTGEKPHKCTFEGCRKSYSRLENLKTHLRSHTGEKPYMCEHEGCSKAFSNASDRAKHQNRTHSNEKPYVCKLPGCTKRYTDPSSLRKHVKTVHGPDAHVTKRHRGDGPLPRAPSISTVEPKREREGGPIREESRLTVPEGAMKPQPSPGAQSSCSSDHSPAGSAANTDSGVEMTGNAGGSTEDLSSLDEGPCIAGTGLSTLRRLENLRLDQLHQLRPIGTRGLKLPSLSHTGTTVSRRVGPPVSLERRSSSSSSISSAYTVSRRSSLASPFPPGSPPENGASSLPGLMPAQHYLLRARYASARGGGTSPTAASSLDRIGGLPMPPWRSRAEYPGYNPNAGVTRRASDPAQAADRPAPARVQRFKSLGCVHTPPTVAGGGQNFDPYLPTSVYSPQPPSITENAAMDARGLQEEPEVGTSMVGSGLNPYMDFPPTDTLGYGGPEGAAAEPYGARGPGSLPLGPGPPTNYGPNPCPQQASYPDPTQETWGEFPSHSGLYPGPKALGGTYSQCPRLEHYGQVQVKPEQGCPVGSDSTGLAPCLNAHPSEGPPHPQPLFSHYPQPSPPQYLQSGPYTQPPPDYLPSEPRPCLDFDSPTHSTGQLKAQLVCNYVQSQQELLWEGGGREDAPAQEPSYQSPKFLGGSQVSPSRAKAPVNTYGPGFGPNLPNHKSGSYPTPSPCHENFVVGANRASHRAAAPPRLLPPLPTCYGPLKVGGTNPSCGHPEVGRLGGGPALYPPPEGQVCNPLDSLDLDNTQLDFVAILDEPQGLSPPPSHDQRGSSGHTPPPSGPPNMAVGNMSVLLRSLPGETEFLNSSA
B2: Zinc finger protein GLI1 (Homo sapiens), P08151 (parent)
chain: B1 chain
partner: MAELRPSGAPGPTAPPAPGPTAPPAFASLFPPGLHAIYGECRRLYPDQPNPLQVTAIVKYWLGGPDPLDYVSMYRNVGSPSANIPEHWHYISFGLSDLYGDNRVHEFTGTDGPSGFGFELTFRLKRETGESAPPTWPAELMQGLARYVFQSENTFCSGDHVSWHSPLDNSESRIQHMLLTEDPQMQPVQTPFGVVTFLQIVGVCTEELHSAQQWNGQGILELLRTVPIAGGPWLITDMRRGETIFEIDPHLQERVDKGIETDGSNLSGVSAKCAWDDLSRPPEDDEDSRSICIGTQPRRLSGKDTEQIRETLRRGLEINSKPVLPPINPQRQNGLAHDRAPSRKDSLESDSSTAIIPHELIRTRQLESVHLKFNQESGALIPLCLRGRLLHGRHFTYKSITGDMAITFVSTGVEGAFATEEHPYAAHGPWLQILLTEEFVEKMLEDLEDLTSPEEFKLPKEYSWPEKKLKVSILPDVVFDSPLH

Variants of: B1
Conditions: with RPS6KB1, P23443-2
RPS6KB1, P23443-2, sequence (P23443 24-525): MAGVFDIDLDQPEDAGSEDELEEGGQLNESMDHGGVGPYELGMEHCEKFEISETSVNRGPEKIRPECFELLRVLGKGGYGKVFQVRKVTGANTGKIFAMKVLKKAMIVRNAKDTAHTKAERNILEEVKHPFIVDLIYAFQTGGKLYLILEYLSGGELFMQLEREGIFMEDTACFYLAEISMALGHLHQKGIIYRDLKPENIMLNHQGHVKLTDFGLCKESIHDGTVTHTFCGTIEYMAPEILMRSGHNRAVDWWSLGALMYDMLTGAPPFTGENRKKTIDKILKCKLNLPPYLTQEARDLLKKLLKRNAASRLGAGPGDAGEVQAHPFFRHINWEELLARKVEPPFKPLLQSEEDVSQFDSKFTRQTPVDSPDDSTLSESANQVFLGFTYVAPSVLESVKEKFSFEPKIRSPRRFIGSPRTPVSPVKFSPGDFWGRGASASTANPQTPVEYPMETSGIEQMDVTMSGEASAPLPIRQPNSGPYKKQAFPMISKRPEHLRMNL

effect of a mutation on the interaction | Variant
disrupting interaction | S84A

Variants of: B2
Conditions: with sufu_human SUFU

effect of a mutation on the interaction | Variant
decreasing interaction | S84E
